Tests used:
[1] = Example 5: repeat growth performance trial of IL-5 with normal, reduced and no antibiotics; assay type: in vivo, pigs
Method: This trial repeats the evaluation of IL-5 to improve growth performance and/or immunity of pigs by comparing the growth rate and health of male and female weaner pigs (from 28 days old: Week 0 of the trial) through the weaner (Weeks 0-6), grower (Weeks 6-13) and finisher (Weeks 13-19) stages to slaughter (Week 19), which were administered with recombinant porcine cytokine IL-5, and saline was used as a control, with and without standard weaner medicated water and feed, and reduced antibiotics, in a commercial piggery environment.
This trial (weaner/grower/finisher trial) was designed to investigate the effect of providing IL-5 and the controls (saline) from weaning to slaughter with normal, reduced and no antibiotics in water supply. The experiment evaluates the capacity of IL-5 for replacing antibiotics under commercial pig rearing conditions and to determine the effect of continuous administration of the cytokines throughout the life of the pig on performance and carcass characteristics.
The experiment was undertaken in a commercial environment where the pigs were weaned at 28 days of age. All injections were 1 ml. There were 16 pigs per treatment, 8 males and 8 females per treatment. The overall weight of pigs in each treatment was similar at the start of the experiment.
−means no antibiotic supplements in water or feed throughout trial.
0.5 means single antibiotics used throughout trial at normal dose
+ means normal antibiotic regime used throughout trial IL-5+ means IL-5 administered during Weaner/Grower/Finisher periods.
IL-5+p means IL-5 administered during Weaner period only.
A. Saline injection, 1 ml IM neck muscle.
B. 100 μg IL-5 injection, 1 ml IM neck muscle.
Weaner stage: 2 injections per week,
Grower and finisher stage 1 injection per week.
(§1) Pigs were weaned and weighted at the start of the experiment (D0, W0) and weekly until the end of the weaner period (W6), at the end of the grower (W13) and finisher (W19) stages and once during the grower (W9) and finisher (W16) stages. Blood and sera samples were collected at the start (before treatments) and end of the weaner, grower and finisher periods. Blood and sera were taken prior to treatment injection. Haematology (totals and differentials) was performed.
At the start of the trial, the mean weight and the variance of all groups was equalised to reduce confounding influence of starting weight. Thus, the positive effects on growth were due to treatment effects.

[2] = system: eosinophils; assay: Example 5: haematology, eosinophil levels; parameters: species or system pigs; conditions: pig, in vivo
Method: as §1
Haematology and differentials were undertaken at various time points during the trial. There were no significant changes between groups for these parameters except for eosinophil levels (FIG. 41).

[3] = system: H. parasuis, APP and Swine dysentry; assay: Example 4: deaths and production loss from infectious disease; assay type: in vivo, pigs; conditions: for number of deaths during trial: 20 per group; for deaths (autopsy report summary) / production loss (deaths from infectious disease or weight loss): weaner period
Method: This trial evaluated the capacity of IL-5 to improve growth performance and immunity of pigs by comparing the growth rate and health of weaner pigs (28 day old weaners is Day 0 of the trial and the weaner period continued for 42 days) through to the finisher stage (Days 93 to 113) and slaughter (133 days after commencing the trial). The pigs were administered recombinant porcine cytokine, IL-5, and saline was used as a control, with and without standard weaner medicated water and feed in a commercial piggery environment.
40 pigs per treatment mixed in-groups of 20, with 4 replicates containing standard medicated water and feed and 4 replicates without medicated feed or water.
These are possibly a reflection of resistance to infections as all pigs were subjected to a severe exposure of pathogens (deaths occurred from H. parasuis “Glasser's”, APP and Swine dysentry).
The production loss in terms of deaths from infectious disease or weight loss as measured by weekly weighing is shown in FIG. 13. No deaths occurred in the IL-5 medicated group (FIG. 13), a factor that influenced the positive effect of IL-5 on increasing total group weight as described above (FIG. 10). The majority of deaths also included prior weight loss, but were recorded as deaths only. The antibiotic medicated groups had reduced numbers of pigs that lost weight during 1 or more weeks during the weaner period compared to the un-medicated groups. The first week after weaning was where the majority (>80%) of pigs lost weight.

[4] = system: eosinophils; assay: Example 3: mode of administration of IL-5 (protein or DNA) on eosinophils; assay type: in vivo, pigs; conditions: six times over 2 weeks
Method: This trial compared the delivery of IL-5 as recombinant protein or by DNA using different routes of administration. Each treatment was administered six times over 2 weeks (Days 0, 1, 3, 6, 8, 10).
6 pigs/treatment group. Blood haematology measured.
The experiment was conducted using medicated feed Barastoc EziWean 150 then Bunge Grolean CREEP ad libitum in an experimental environment (PC2 containment facilities).
Blood total and differential counts were performed using a CellDyn 3700 haematology machine.

[5] = system: eosinophils; assay: Example 4: % eosinophils of WBC in blood; assay type: in vivo, pigs; conditions: blood the day after treatment, end of weaner period
Text: Blood and sera samples collected at the start (before treatments) and end of the weaner period. Blood and sera were taken prior to injecting samples.
Blood was taken the day after IL-5 and saline treatments and represent a single time point only. […] As a general observation IL-5 plus medication had higher eosinophils numbers than the IL-5 without antibiotics.

[6] = Example 5: production loss during outbreak of post weaning scours; assay type: in vivo, pigs; conditions: normal antibiotics, 2 days into weaner period
Text: (§2) Unfortunately, a severe outbreak of post weaning scours affected all treatment groups. The most likely cause of the scours was E. coli. […] FIG. 25 compares the average weights of the saline controls, with and without antibiotics, from this experiment and the previous experiment. […] The infectious disease (scours) affected the un-medicated saline group at an earlier stage than the medicated group.
(§3) Weights were taken from the start to the end of the weaner period. […] This benefit was also reflected in the production loss as measured by deaths from infectious disease, or weight loss over any given week during the weaner period (FIG. 29).
(§4) All other deaths were a result of scours. Weight loss was defined as one or more weekly weight reductions of individual pigs. […] Antibiotic supplements also lessened production loss. Weight loss could have also been a result of stress, especially at the time of weaning when pigs are removed from sows, transported, mixed in different social groups and fed dry food. […] The higher average weights were presumably due to reduced severity of disease and associated weight loss. […] The pattern of higher average weight gains in IL-5 treated pigs was repeated with the reduced level and normal level of antibiotic supplementation (FIG. 31 and FIG. 32 respectively). […]

[7] = system: E. coli; assay: as above; assay type: in vivo, pigs; conditions: vs respective saline controls
Text: as §2, §3, §4

[8] = 2nd trial, normal medication, weaner period
[9] = normal antibiotics, IL-5 during weaner, grower, finisher periods

B1: interleukin 5 (protein, UniProt Q9MYM5 22-134, looked up)
Interleukin-5: VENTMNRLVAETLTLLSIHRTLLIGDGNLMISTPVHTNHQLCIEEVFQGIDTLKNQTARGDAVEKLFQNLSLIKEYIDRQKKNCGGERWRVTQFLDYLQVFLGVINTEWTMES
notes: recombinant porcine IL-5 protein expressed in E. coli; + / − = with / without antibiotic medicated feed and water, +p = weaner period only
increase in average weights over medicated saline control [1, 8]: 7%
increase in weight gain over medicated saline control [1, 8]: 11%
total group weights, weaner period ([1]; no, reduced or normal antibiotics): beneficial effects on total weights, especially with reduced or no antibiotic supplements
average weight increases, weaner-only vs continuous IL-5 ([1]; normal antibiotics): no significant differences between groups given IL-5 during the weaner or continuously throughout the weaner, grower and finisher periods
change of final average weight vs saline control [1, 9]: ~−1.5%
decrease of final average weight vs saline control [1, 9]: 1.3 kg
average weights ([1]; normal antibiotics, W6 to W13): consistently higher average weights than the saline control (with normal antibiotics) from the end of the weaner period (W6) to the end of the grower period (W13)
average weight higher than IL-5+p ([1]; normal antibiotics, Week 13): 1.3 kg
average weight higher than saline control ([1]; normal antibiotics, Week 13): 4.7 kg
average weight lower than IL-5+p ([1]; normal antibiotics, Week 19): 2 kg
average weight lower than saline control ([1]; normal antibiotics, Week 19): 1.3 kg
average weight gains during the Weaner period ([1]; vs respective saline controls, with or without antibiotic supplements): consistently higher average weight gains during the Weaner period compared to the respective saline controls with or without antibiotic supplements in water or feed
average weight gains during the Weaner period ([1]; vs saline controls without antibiotic supplements): consistently higher average weight gains during the Weaner period
levels of eosinophils in blood (absolute numbers and differentials) [2]: significantly increased the levels of eosinophils in blood
number of deaths during trial ([3]; Final (Day 133), medicated): 0
number of deaths during trial ([3]; Final (Day 133), un-medicated): 3
number of deaths during trial ([3]; Weaner (Day 42), medicated): 0
number of deaths during trial ([3]; Weaner (Day 42), un-medicated): 2
condition and health of pigs ([3]; medicated): excellent condition and health compared to other groups
deaths (autopsy report summary) ([3]; medicated): No deaths or intervention
production loss (deaths from infectious disease or weight loss) ([3]; medicated): no pig from the medicated IL-5 treatment group lost weight or died from infectious disease
production loss (deaths from infectious disease or weight loss) ([3]; un-medicated): reduced production loss
deaths (autopsy report summary) ([3]; unmedicated): 2x H. parasuis
circulating eosinophil numbers (percentage of WBC) ([4]; 100 μg rec.IL-5 IM hind leg, listed as Recombinant IL-5): elevated circulating eosinophil numbers
circulating eosinophil numbers (percentage of WBC) ([4]; 100 μg rec.IL-5 IM hind leg, listed as recombinant IL-5): increase in the duration and level of eosinophils in blood
circulating eosinophil numbers (percentage of WBC) ([4]; 100 μg rec.IL-5 intranasal spray): slight increases on eosinophil numbers compared to the DNA control but not statistically significant
% eosinophil cells of WBC [5]: substantial effect on % eosinophil cells of WBC in both the medicated and un-medicated groups
deaths [6]: H. parasuis deaths occurred
production loss (deaths from infectious disease or weight loss), weaner period [7]: less production loss compared to their respective saline controls

From US20040170601A1, “Method of improving the growth performance of an animal” (priority 2001, published 2004)
